This note sets out measurements from US20200231654A1 (published 2020).

The target in assay [1] is MMP14 Recombinant Protein (human, UniProt P50281 112-287). Briefly: enzyme inhibition.
Assay [2] addresses APMA-activated human MMP-13 enzyme active domain (human, UniProt P45452 104-274). Description: enzyme inhibition.
Assay [3] has as its target MMP-10 (catalytic domain) (human), (recombinant) (human, UniProt P09238 99-266). Description: enzyme inhibition.
Assay [4] has as its target T1, ADAM17 (catalytic domain) (human), (recombinant) (His-tag) (human, UniProt P78536 215-477).
T1 chain: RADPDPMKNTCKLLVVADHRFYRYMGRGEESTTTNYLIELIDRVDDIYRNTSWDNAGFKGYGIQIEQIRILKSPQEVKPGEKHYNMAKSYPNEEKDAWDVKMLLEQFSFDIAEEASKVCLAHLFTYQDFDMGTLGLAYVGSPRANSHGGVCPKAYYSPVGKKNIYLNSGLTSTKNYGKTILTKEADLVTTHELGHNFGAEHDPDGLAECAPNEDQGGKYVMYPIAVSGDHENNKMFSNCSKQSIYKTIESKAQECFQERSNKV
Description: enzyme inhibition.

Assay [5] concerns the target human MMP-3 activated by APMA (human, UniProt P08254 100-477). Description: enzyme inhibition.
The target of assay [6] is APMA-activated human MMP-8 enzyme active domain (human, UniProt P22894 101-262). Briefly: enzyme inhibition.
In assay [7] the target is T2, Recombinant Human MMP-17 Protein, CF (human, UniProt Q9ULZ9 36-565).
T2 chain: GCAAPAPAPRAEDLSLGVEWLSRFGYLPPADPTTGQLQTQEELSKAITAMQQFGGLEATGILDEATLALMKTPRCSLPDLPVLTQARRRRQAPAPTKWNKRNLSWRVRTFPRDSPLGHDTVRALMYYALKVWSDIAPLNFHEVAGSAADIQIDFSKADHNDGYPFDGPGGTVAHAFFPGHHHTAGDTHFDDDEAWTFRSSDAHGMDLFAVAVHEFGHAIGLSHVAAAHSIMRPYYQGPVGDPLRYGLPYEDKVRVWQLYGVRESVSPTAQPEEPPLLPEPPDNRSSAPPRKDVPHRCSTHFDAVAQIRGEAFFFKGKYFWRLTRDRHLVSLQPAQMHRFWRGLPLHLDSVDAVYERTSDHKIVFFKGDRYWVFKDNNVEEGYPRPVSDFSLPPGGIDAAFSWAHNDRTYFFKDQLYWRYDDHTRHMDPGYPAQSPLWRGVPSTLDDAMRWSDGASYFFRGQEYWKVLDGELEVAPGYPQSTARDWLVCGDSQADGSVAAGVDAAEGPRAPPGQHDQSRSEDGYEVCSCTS
Briefly: enzyme inhibition.

In assay [8] the target is MMP-12 (catalytic domain) (human), (recombinant) (human, UniProt P39900 106-263). Description: enzyme inhibition.
Assay [9] has as its target T3, MMP-2, active, Human, Recombinant, CHO Cells (human, UniProt P08253 110-660).
T3 chain: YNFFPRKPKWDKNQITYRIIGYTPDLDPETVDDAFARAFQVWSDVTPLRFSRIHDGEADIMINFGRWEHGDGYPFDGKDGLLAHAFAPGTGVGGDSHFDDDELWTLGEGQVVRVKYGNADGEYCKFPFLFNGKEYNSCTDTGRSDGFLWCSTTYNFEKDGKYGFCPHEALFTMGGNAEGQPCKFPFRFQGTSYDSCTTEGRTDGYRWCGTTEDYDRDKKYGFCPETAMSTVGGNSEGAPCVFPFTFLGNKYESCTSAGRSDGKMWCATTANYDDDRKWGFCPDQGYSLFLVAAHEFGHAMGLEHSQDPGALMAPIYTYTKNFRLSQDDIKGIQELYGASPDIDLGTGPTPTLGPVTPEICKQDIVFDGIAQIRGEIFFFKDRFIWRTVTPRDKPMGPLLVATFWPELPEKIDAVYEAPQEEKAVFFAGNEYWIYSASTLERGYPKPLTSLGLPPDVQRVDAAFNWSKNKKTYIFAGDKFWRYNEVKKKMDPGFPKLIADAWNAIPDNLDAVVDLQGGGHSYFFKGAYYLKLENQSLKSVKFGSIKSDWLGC
Description: enzyme inhibition.

Assay [10] deals with Recombinant Human MMP-16/MT3-MMP Protein, CF (human, UniProt P51512 32-564). Description: enzyme inhibition.
Assay [11] deals with T4, APMA-activated human MMP-1 enzyme active domain (human, UniProt P03956 100-269).
T4 chain: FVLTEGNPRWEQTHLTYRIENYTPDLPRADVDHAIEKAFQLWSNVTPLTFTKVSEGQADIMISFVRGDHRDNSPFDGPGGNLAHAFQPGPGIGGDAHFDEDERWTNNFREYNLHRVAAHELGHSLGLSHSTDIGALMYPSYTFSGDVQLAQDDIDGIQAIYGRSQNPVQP
Briefly: enzyme inhibition.

The target in assay [12] is T5, MMP-7 (catalytic domain) (human), (recombinant) (human, UniProt P09237 95-267).
T5 chain: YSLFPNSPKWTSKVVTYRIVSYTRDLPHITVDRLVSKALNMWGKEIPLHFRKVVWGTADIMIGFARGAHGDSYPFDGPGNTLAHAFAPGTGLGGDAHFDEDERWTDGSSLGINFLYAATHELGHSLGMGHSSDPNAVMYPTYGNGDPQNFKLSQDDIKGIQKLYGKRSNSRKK
Briefly: enzyme inhibition.

Assay [13] deals with active hMMP-9(cat)_His6 (UniProt P14780 107-449). Briefly: enzyme inhibition; substrate peptide.
Assay [14] addresses active hMMP-9(cat)_M422I (UniProt P14780 107-449). Description: substrate peptide enzyme inhibition.
The target of assay [15] is active hMMP-9(cat)_V398A (UniProt P14780 107-449). Description: substrate peptide enzyme inhibition.
Chain of active hMMP-9(cat)_V398A (P14780 107-449 V398A): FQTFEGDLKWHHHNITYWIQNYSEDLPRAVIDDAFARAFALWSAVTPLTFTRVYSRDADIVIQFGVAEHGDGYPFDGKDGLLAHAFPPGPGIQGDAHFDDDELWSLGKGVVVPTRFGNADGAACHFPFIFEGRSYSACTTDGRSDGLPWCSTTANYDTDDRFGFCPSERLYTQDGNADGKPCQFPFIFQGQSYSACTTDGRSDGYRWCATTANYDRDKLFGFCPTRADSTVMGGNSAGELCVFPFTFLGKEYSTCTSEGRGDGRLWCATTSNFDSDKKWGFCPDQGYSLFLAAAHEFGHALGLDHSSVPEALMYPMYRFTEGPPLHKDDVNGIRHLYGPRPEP

Chain of APMA-activated human MMP-8 enzyme active domain (P22894 101-262): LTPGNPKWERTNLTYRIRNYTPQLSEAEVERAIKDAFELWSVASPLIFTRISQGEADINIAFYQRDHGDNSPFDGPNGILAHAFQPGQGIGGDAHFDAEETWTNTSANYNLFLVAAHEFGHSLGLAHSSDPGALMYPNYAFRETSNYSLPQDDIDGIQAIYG
Chain of human MMP-3 activated by APMA (P08254 100-477): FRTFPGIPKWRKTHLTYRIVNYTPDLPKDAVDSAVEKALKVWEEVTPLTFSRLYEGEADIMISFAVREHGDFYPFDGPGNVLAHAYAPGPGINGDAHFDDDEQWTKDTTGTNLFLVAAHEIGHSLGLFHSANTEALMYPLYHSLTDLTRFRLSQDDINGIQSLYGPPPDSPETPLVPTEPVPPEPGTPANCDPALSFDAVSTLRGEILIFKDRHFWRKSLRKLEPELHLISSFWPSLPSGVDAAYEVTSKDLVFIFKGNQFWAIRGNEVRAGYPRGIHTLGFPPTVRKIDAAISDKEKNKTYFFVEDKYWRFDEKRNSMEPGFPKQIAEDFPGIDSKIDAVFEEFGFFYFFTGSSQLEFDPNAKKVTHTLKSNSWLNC
Chain of MMP-10 (catalytic domain) (human), (recombinant) (P09238 99-266): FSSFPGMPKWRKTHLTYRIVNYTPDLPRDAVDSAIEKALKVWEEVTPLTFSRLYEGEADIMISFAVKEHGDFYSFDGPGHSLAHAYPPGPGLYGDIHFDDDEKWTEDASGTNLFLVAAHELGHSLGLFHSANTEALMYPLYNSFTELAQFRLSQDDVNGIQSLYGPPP
Chain of Recombinant Human MMP-16/MT3-MMP Protein, CF (P51512 32-564): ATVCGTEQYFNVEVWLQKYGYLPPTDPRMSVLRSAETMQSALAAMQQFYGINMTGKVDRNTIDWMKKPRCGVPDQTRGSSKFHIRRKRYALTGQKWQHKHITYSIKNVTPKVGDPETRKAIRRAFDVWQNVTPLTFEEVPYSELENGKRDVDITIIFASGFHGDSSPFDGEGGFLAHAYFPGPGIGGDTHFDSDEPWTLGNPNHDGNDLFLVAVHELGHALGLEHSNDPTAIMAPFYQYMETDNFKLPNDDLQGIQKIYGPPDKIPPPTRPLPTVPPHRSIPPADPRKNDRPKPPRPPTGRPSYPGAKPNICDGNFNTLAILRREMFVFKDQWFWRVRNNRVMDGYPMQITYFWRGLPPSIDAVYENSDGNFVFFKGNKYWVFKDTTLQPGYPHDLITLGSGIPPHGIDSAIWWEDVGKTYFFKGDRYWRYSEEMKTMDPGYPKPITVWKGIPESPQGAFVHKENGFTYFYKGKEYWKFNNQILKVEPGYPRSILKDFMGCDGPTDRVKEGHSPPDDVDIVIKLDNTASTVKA
Chain of active hMMP-9(cat)_His6 (P14780 107-449): as the sequence (P14780 107-449 V398A) above, with A292V counted along it
Chain of MMP-12 (catalytic domain) (human), (recombinant) (P39900 106-263): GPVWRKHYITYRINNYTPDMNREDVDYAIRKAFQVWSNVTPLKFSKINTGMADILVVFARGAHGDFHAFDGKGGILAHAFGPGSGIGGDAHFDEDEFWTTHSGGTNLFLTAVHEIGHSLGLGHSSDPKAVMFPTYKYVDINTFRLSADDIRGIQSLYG
Chain of active hMMP-9(cat)_M422I (P14780 107-449 M422I): as the sequence (P14780 107-449 V398A) above, with A292V, M316I counted along it

B1: active MMP-9-binding peptide M91005 (designed binder)
chain: GSGMKETAAAKFERQHMDSPDLGTDDDDKAMADIGSANSDPQFGLFSKYRTPNCRKRGGPSCQMSYNPVCGSDMSTYANECTLCMKIREGGHNIKIIRNGPCGASAAA
As to B1, the 50% inhibitory concentration (IC50) in assay [1], in assay [2], in [3], in [4], in assay [5] and in assay [6] was above 1000 nM in each case. Also, the IC50 in assay [7], in assay [8], in assay [9], in assay [10], in [11] and in assay [12] was above 1000 nM throughout. For the same molecule, the 50% inhibitory concentration (IC50) in [14] came out at 45 nM; in [15], 39 nM. The molecule also yielded an inhibition constant Ki in assay [13] of 1.4 nM.

Broadly, the IC50 is the point on the concentration scale where inhibition reaches its midpoint. A word on the Ki: it is a dissociation constant, usually derived from enzyme kinetics or from competition with a known ligand.
